Measured values as given in patent US20150210761A1 (SAMSUNG ELECTRONICS, published 2015).

T1: mouse Ang2 (Accession # NP-031452) (R&D Systems) (mouse, UniProt O35608 19-496)
T1 construct: Bought protein coated on the ELISA plate; also called mAng2
T1 sequence (looked up): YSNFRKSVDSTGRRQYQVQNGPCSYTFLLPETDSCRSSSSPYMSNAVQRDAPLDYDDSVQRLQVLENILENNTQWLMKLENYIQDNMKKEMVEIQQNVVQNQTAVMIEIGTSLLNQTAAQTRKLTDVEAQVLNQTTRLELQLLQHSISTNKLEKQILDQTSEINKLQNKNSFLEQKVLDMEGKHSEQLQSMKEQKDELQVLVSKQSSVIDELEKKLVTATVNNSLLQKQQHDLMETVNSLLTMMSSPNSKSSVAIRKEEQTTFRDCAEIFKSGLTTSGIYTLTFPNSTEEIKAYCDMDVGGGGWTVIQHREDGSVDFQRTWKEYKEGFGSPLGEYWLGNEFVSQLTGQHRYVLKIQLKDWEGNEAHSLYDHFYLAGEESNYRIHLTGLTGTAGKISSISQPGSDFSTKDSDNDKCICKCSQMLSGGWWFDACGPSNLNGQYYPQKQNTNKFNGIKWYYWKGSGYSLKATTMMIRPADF

T2: Ang2 RBD mutant P419 (human, UniProt O15123 276-496)
T2 chain: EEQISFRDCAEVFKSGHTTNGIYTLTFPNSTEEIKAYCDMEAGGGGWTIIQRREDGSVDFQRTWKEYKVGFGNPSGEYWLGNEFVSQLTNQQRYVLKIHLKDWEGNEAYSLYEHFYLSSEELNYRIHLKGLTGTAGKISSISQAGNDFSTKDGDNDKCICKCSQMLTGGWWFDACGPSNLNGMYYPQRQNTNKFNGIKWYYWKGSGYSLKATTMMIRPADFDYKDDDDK

T3: Ang2 RBD mutant D448 (human, UniProt O15123 276-496)
T3 chain: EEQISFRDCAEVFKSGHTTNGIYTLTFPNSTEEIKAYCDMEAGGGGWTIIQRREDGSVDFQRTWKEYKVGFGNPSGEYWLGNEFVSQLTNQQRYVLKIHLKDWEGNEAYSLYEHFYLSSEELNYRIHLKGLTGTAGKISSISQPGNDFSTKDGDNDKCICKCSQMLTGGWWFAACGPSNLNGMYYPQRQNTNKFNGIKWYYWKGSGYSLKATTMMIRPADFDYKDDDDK

T4: Ang2 RBD mutant P452 (human, UniProt O15123 276-496)
T4 chain: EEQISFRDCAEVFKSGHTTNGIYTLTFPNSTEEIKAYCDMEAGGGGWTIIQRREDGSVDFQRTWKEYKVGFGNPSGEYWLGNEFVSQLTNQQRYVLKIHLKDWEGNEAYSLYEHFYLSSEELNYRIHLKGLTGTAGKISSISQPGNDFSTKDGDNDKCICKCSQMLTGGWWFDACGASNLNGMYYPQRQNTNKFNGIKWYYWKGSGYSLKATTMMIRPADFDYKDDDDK

T5: Ang2 RBD mutant N467 (human, UniProt O15123 276-496)
T5 chain: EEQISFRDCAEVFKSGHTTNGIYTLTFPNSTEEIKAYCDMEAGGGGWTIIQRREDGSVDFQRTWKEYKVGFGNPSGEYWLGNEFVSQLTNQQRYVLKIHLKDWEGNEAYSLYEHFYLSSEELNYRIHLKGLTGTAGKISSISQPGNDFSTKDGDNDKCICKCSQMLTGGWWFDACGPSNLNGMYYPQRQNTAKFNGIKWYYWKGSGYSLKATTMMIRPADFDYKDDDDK

T6: Ang2 RBD mutant F469 (human, UniProt O15123 276-496)
T6 chain: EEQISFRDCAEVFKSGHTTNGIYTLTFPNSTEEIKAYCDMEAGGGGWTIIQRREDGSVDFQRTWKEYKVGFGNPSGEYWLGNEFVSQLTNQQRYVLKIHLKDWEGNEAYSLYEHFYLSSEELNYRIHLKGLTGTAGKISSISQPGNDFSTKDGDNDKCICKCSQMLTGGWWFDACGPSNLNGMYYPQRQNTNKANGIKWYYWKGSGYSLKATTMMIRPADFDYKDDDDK


What was measured:
[1] = molecular target: T1, mouse Ang2 (Accession # NP-031452) (R&D …); experiment: ELISA on coated mouse Ang2; 50% binding concentration, which the filing calls Kd
Experimental: An ELISA was conducted to measure the binding affinity of the antibodies prepared in Example 2 to mouse Ang2(mAng2). MaxiSorp™ flat-bottom plate (Nunc) of 96-well was coated with 5-20 μg/ml of mouse Ang2 (Mouse Ang2; Accession # NP_{—}031452) (R&D Systems). Thereafter, the plate was washed five times with 0.05% (v/v) Tween-20-containing PBS (PBST) and then blocked with 1% (v/v) BSA (bovine serum albumin; Sigma)-containing PBS at a room temperature for 2 hour. Each of the anti-Ang2 antibodies was added to each well of the plate at various concentrations, and the plate was allowed to react at a room temperature for 2 hours.
Thereafter, the plate was washed five times with PBST. Then, a HRP-conjugated anti-mouse IgG antibody (Santacruz) diluted in 1% (v/v) BSA-containing PBS at a ratio of 1:1,000 (v/v) was added in an amount of 50 μl to each well to react at a room temperature for 1 hour and then, the plate was washed five times with PBST. Lastly, 100 μl of TMB substrate (Cell Signaling) was added to each well of the plate to induce color development for 3 min. and then, the reaction was ceased by the addition of 100 μl of Stop solution (Cell Signaling) and OD450 values were measured on a plate reader (Molecular Devices).
From the obtained results, 50% binding concentration (Kd) of the anti-Ang2 antibody to Ang2 protein is obtained, thereby measuring the binding intensity of each of the anti-Ang2 antibodies to Ang2.

[2] = molecular target: T1, mouse Ang2 (Accession # NP-031452) (R&D …); experiment: ELISA on coated mouse Ang2
Ang2 RBD mutant P419 = molecular target: T2, Ang2 RBD mutant P419; experiment: ELISA; antibody coated, FLAG-tagged RBD mutant, anti-FLAG-HRP detection
Ang2 RBD mutant D448 = molecular target: T3, Ang2 RBD mutant D448; experiment: as above
Ang2 RBD mutant P452 = molecular target: T4, Ang2 RBD mutant P452; experiment: as above
Ang2 RBD mutant N467 = molecular target: T5, Ang2 RBD mutant N467; experiment: as above
Ang2 RBD mutant F469 = molecular target: T6, Ang2 RBD mutant F469; experiment: as above

Row | Kd [1] [nM] | binding result [2] | Binding (%) (mutant Ang2 / native Ang2) (Ang2 RBD mutant P419) | Binding (%) (mutant Ang2 / native Ang2) (Ang2 RBD mutant D448) | Binding (%) (mutant Ang2 / native Ang2) (Ang2 RBD mutant P452) | Binding (%) (mutant Ang2 / native Ang2) (Ang2 RBD mutant N467) | Binding (%) (mutant Ang2 / native Ang2) (Ang2 RBD mutant F469) | Binder
1 | 130 |  |  |  |  |  |  | SAIT-ANG2-AB-m3E2 (antibody, V domains shown, also called hybridoma KCLRF-BP-00305) VH: EVQLQQSGAELVKPGASVKLSCTASGFNIKDPYIHWVKQRPEQGLEWIGRIDPANGNTKYDPKFQGKATITADTSSNTAYLQLSSLTSEDTAVYYCVRRWDGGGFDYWGQGTSVTVSS VL: DIQMTQTTSSLSASLGDRVTISCRASQDISNYLNWYQQKPDGTVKLLIYYTSRLHSGVPSRFSGSGSGTDYSLTITNLEQEDIATYFCQQGNTLPWTFGGGTKLEIK
2 |  | no binding | 102 | 95.3 | 105 | 79.4 | 77.9 | SAIT-ANG2-AB-m1A10 (antibody, V domains shown, also called hybridoma KCLRF-BP-00306) VH: QVQLQQSGAELMKPGASVKISCKATDYTFSSYWLEWLIQRPGHGLEWIGEILPGSGSTNYNEKFRGKATFTEDTSSNTAYMQLSSLTSEDSAVYYCARGNHNSYYYAMDYWGQGTSVTVSS VL: DIVLTQSPASLAVSLGQRATISCRASESVDSYGNSFMHWYQQKPGQPPKLLIYRASNLDSGIPARFSGSGSRTDFTLTINPVEADDVATYYCQQSNEDPLTFGAGTKLELK
3 | 141 |  |  |  |  |  |  | SAIT-ANG2-AB-m8D3 (antibody, V domains shown, also called hybridoma KCLRF-BP-00308) VH: EVQLQQSGPELVKPGDSVKMSCKASGYTFTDYYMKWVRQSHGKSLQWVGEINPKNGDTFYNQIFKGKATLTVDKSSSTAYMQLTSLTSEDSAVYYCTRENDYDVGFFDYWGQGTSVTVSS VL: TIVMTQTPKFLLVSAGDRITITCKASQSVSNDVAWYQQKPGQSPKLLIYYASNRYPGVPDRFTGSGYGTDFTFTISTVQAEDLAVYFCQQDYTSPWTFGGGTELEIK
